In US20220112295A1 (Novo Nordisk, published 2022):

T1: FLAG-hCD30L-EC (N153Q) treated with PNGaseF (human)
T1 construct: also called FLAG-hCD30L-EC + PNGaseF
T1 chain: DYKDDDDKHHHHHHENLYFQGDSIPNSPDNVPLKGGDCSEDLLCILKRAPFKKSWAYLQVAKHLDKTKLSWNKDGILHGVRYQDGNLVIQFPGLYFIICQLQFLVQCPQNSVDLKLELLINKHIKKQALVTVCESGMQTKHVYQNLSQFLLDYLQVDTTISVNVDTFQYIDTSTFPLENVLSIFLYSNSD

T2: native human CD30L expressed on Ramos cells (human, UniProt P32971 1-234)
T2 sequence: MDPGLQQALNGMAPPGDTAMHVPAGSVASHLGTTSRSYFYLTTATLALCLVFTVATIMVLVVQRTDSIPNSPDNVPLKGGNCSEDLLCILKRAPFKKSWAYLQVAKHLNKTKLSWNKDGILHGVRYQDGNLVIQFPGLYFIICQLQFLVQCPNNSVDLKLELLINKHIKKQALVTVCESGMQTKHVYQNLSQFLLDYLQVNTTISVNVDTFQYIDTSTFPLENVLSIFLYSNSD

T3: cyno CD30L LZ (cynomolgus monkey, UniProt A0A7N9CVX7 63-234)
T3 sequence: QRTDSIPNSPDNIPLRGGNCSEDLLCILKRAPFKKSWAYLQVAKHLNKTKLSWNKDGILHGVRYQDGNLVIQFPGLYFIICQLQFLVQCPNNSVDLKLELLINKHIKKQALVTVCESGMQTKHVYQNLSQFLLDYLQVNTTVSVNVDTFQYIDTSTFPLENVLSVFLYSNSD

T4: recombinant human CD30L isoleucine zipper (huCD30L LZ) (human, UniProt P32971 63-234)
T4 sequence: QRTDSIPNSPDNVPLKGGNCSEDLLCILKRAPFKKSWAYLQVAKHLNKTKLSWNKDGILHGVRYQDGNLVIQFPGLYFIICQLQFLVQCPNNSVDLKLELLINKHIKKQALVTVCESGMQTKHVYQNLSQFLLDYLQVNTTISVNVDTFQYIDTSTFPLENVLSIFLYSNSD


Legend:
[1] = molecular target: T1, FLAG-hCD30L-EC (N153Q) treated with …; test: HX-MS, 6 uM hCD30L with 6.6 uM mAb
[2] = molecular target: T2, native human CD30L expressed on Ramos …; test: cell-based or functional assay
cyno CD30L LZ = molecular target: T3, cyno CD30L LZ; test: cell-based or functional assay
[3] = molecular target: T4, recombinant human CD30L isoleucine …; test: cell-based or functional assay
[4] = molecular target: T4, recombinant human CD30L isoleucine …; test: blocking of human CD30L LZ binding to K299 cells (CD30)

binding result [1] | IC50, inhibition of IL-8 release (K299/Ramos dual cell assay) [2] | IC50, inhibition of IL-8 release (K299 single cell assay with cyno CD30L LZ) (cyno CD30L LZ) | IC50, inhibition of IL-8 release (K299 single cell assay with huCD30L LZ) [3] | IC50 [4] | Binder
binds | 0.033 nM | 2.4 nM | 2.7 nM | 1.4 nM | Antibody A1 (antibody, V domains shown, also called mAb A1; Antibody A1 IgG2) VH: QVQLQESGPGLVKPSETLSLTCTVSGGSISSYIWSWIRQPAGKGLEWIGRIYASGNTNYNPSLKSRVTISVDTSKNQFSLKLSSMTAADTAVYYCARDYRVAGTYYYYYGLDVWGQGTTVTVSS VL: QSALTQPASVSGSPGQSITISCTGTSSDVGVYDYVSWYQQHPGKAPKLMIYEVSNRPSGVSNRFSGSKSGNTASLTISGLQTEDEADYYCSSYTSRSTWVFGGGTKLTVL
 | 0.032 nM | 1.5 nM |  |  | Antibody A1 IgG1 (antibody, V domains shown) VH: QVQLQESGPGLVKPSETLSLTCTVSGGSISSYIWSWIRQPAGKGLEWIGRIYASGNTNYNPSLKSRVTISVDTSKNQFSLKLSSMTAADTAVYYCARDYRVAGTYYYYYGLDVWGQGTTVTVSS VL: QSALTQPASVSGSPGQSITISCTGTSSDVGVYDYVSWYQQHPGKAPKLMIYEVSNRPSGVSNRFSGSKSGNTASLTISGLQTEDEADYYCSSYTSRSTWVFGGGTKLTVL
